Key:
[1] = molecular target: spike protein of authentic SARS-COV-2 614G virus (SARS-CoV-2 614G) (UniProt P0DTC2); assay: cell-based or functional assay
[2] = molecular target: spike protein of authentic SARS-COV-2 Delta virus (SARS-CoV-2 Delta); assay: cell-based or functional assay
[3] = molecular target: spike protein of authentic SARS-COV-2 Omicron BA.1 virus (SARS-CoV-2 Omicron BA.1); assay: cell-based or functional assay
[4] = molecular target: spike protein of authentic SARS-COV-2 Omicron BA.2 virus (SARS-CoV-2 Omicron BA.2); assay: cell-based or functional assay
[5] = molecular target: spike protein of authentic SARS-COV-2 Omicron BA.5 virus (SARS-CoV-2 Omicron BA.5); assay: cell-based or functional assay
[6] = molecular target: SARS-COV-2 spike [change] trimer ([change]-foldon-His-Strep) (SARS-CoV-2 (Wuhan)) (UniProt P0DTC2)

## Bebtelovimab Biosimilar (PX-TA1750) (antibody)
[1]
  GM IC50 in ng/mL (GSD factor), live virus microneutralisation: 3.8 ng/mL
[2]
  GM IC50 in ng/mL (GSD factor), live virus microneutralisation: 1.6 ng/mL
[3]
  GM IC50 in ng/mL (GSD factor), live virus microneutralisation: 2.5 ng/mL
[4]
  GM IC50 in ng/mL (GSD factor), live virus microneutralisation: 1.7 ng/mL
[5]
  GM IC50 in ng/mL (GSD factor), live virus microneutralisation: 2.4 ng/mL

## CB6 monoclonal antibody
[6]
  IC50 (read off the curve): 0.05 µg/mL

## cilgavimab Biosimilar (PX-TA1033) (antibody)
[1]
  GM IC50 in ng/mL (GSD factor), live virus microneutralisation: 30.9 ng/mL
[2]
  GM IC50 in ng/mL (GSD factor), live virus microneutralisation: 28.8 ng/mL
[3]
  GM IC50 in ng/mL (GSD factor), live virus microneutralisation: 156 ng/mL
[4]
  GM IC50 in ng/mL (GSD factor), live virus microneutralisation: 21.2 ng/mL

## sotrovimab Biosimilar (PX-TA1637) (antibody)
[1]
  GM IC50 in ng/mL (GSD factor), live virus microneutralisation: 205 ng/mL
[2]
  GM IC50 in ng/mL (GSD factor), live virus microneutralisation: 141 ng/mL
[3]
  GM IC50 in ng/mL (GSD factor), live virus microneutralisation: 1100 ng/mL
[4]
  GM IC50 in ng/mL (GSD factor), live virus microneutralisation: 7150 ng/mL
[5]
  GM IC50 in ng/mL (GSD factor), live virus microneutralisation: > 10000 ng/mL
